This note sets out measurements from article PMC9058210 (Nature chemical biology, 2022).

The series deals with the molecule itself. Put plainly: crystal structure.

B1: SalC (enzyme, Salinispora tropica CNB440)
chain: MSEAVERNYDPGDVAIIGASCRFPGARNKEQYWDNLLHGREGVTFYAKDEIEVDETLINSPAYVRATGALDGYDEFDPAVFGVSDRMAAAMTPEHRVFLEASWEVMEDASYDPERVRGEVGVYASTNPQSAALYSSPPDWVSAGPEVMDRSNAWLPDTITSNVLYYLGLTGEAVTVTAVCSGFHYAVHLACQSLLLGQTDMAIAGGVMVRLPQRRGYLWEEGRILSRDGHCRPFDANGTGSVLASGVAVVLLKPLPQAVADRDHIYATVKGTAINNNGISAMAYGLAQPERLSACIAGAMQAGDVAPETVSMYEANGFGMPITDSLEVHAAHLAFGKQSGTCSIGAVKGNIGHAGVVAGGSGAVKAAFALYHRSLPPTINLTELNEEIDFPRTPFVPQLEPAAWQPECGIRRAGITALGGGGYNAHLVLEEPPRPVEREPENRRPRIVTLSALDDAAVSRQRAALSSWLAEHSDARLDDIAYSLNLGRKALPSRWAAVISTRDELLEVLSGDGKSGRVSRFGQERRADLARFRRTEDGLALGSGDEMRDVQALTELAAAWVQGERVNFEVLHADERSHRISLPNYPFARRRFWRTDW
With B1, the “stoichiometry N” value is 4.
